Source: patent US20240216557A1 (Memorial Sloan Kettering, published 2024)
Numbering of substitutions follows the chain as printed. Values belong to the binder of their own block, whether it stands above or below them.

Columns and labels:
[1] = molecular target: T1, DLL3 on H82 xenograft tumor cells (UniProt Q9NYJ7 27-618, limits assumed); assay: immunoPET imaging of athymic mice bearing right flank subcutaneous H82 xenografts after tail vein injection of the Zr-89 labelled antibody; time point not printed on the sheet
T1 construct: whole, on cells; H82 is a human SCLC line by general knowledge
T1 sequence (looked up): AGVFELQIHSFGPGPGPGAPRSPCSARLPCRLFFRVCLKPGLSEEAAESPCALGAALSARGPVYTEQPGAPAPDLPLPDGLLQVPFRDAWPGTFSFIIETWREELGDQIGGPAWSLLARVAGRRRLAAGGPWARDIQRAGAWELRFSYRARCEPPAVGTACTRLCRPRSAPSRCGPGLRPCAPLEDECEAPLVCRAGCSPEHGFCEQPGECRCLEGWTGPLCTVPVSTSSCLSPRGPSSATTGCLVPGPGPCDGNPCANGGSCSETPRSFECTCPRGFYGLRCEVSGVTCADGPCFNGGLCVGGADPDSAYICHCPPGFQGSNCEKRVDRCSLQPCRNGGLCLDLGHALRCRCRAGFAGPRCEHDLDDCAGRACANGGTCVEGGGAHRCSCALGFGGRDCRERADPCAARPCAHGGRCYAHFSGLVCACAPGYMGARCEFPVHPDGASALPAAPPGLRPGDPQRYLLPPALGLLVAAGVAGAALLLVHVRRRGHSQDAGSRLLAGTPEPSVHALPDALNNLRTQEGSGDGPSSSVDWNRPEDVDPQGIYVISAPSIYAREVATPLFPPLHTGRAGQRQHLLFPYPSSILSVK
Procedure: (§1) To ensure adequate binding to DLL3 in vivo, the three antibodies were first bioconjugated to p-SCN-Bn-DFO chelators and then radiolabeled with Zr-89 for injection via tail vein into athymic female mice bearing right flank subcutaneous H82 xenografts (250-300 Ci, 30 μg). ImmunoPET imaging was performed every 24 h until 120 h, when a terminal ex vivo biodistribution study was performed.

[2] = molecular target: T1, DLL3 on H82 xenograft tumor cells; assay: immunoPET and ex vivo biodistribution of the Zr-89 labeled antibody in mice with H82 xenografts
Procedure: as §1

[3] = molecular target: T1, DLL3 on H82 xenograft tumor cells; assay: immunoPET imaging of athymic mice bearing right flank subcutaneous H82 xenografts after tail vein injection of the Zr-89 labelled antibody; time point not printed on the sheet; remark: listed apart in the source
Procedure: as §1

- binding result [1]: binds
B1: [89Zr]Zr-DFO-J8 antibody (antibody, V domains shown)
VH: QVHLVQSGAEVKKPGASVKVSCKASGYTFTIYYIHWVRQAPGQGLEWMGIINPSGGSTSYAQKFQGRVTMTRDTSTSTVYMELSSLRSEDTAVYYCSGNDYVDYVTTDYYGMDVWGQGTTVTVSS
VL: DIQMTQSPSSLSASVGDRVTITCRASQGISNYLAWFQQKPGKAPKSLIYAASSLQSGVPSKFSGSGSGTDFTLTISSLQPEDFATYYCQQYNSSPYTFGQGTKLEIK
modifications: p-SCN-Bn-DFO chelator bioconjugated to the antibody (sites not given), radiolabeled with Zr-89
notes: also called J8 (monoclonal IgG4, DFO-conjugated, Zr-89 labeled)

- binding result [2]: binds
B2: E9 monoclonal IgG4 antibody bioconjugated to p-SCN-Bn-DFO and radiolabeled with Zr-89 (antibody, V domains shown)
VH: QVQLVQSGAEVKKPGASVKVSCKASGYTFTSYYMHWVRQAPGQGLEWMGVINSSGGSTSYAQKFQGRVTMTRDTSTSTVYMDLSSLRSEDTAVYYCARGYCTNGVYYDEDFDYWGQGTLVTVSS
VL: B1 VL with N31H, K45T, S94Y, Y96L, Q100G, L104V
modifications: p-SCN-Bn-DFO chelator bioconjugated to the antibody (sites not given), radiolabeled with Zr-89

- binding result [3]: binds
B3: [89Zr]Zr-DFO-A18 antibody (antibody, V domains shown)
VH: QVTLRESGPALVKSTQTLTLTCTFSGFSLSTSGMCVSWIRQTPGKALEWLALIDWDDNKYYSTSLKTRLIISKDTSKNQVVLTMTNMEPVDTATYYCARIRGYSGSYDAFDIWGQGTMVTVSS
VL: DIVMTQSPLSLPVTPGEPASISCRSSQSLLHSNGYNYLDWYLQKPGQSPHILLYLGSNRAPGVPDRFSGSGSGTDFTLKISRVEAEDVGVYYCMQALQTPFTFGPGTKVDIK
modifications: p-SCN-Bn-DFO chelator bioconjugated to the antibody (sites not given), radiolabeled with Zr-89
notes: also called A18 (monoclonal IgG4, DFO-conjugated, Zr-89 labeled)
